Experimental data reported in the supplement of paper PMC11246515.
± gives the standard deviation of the averaged measurements.

Experiment: total protein half-life in vivo (active degradation + dilution); higher = more stable protein
[1] = E. coli NCM3722 delta-clpP delta-lon delta-hslV, growth: N-lim chemostat, doubling time 6 h
[2] = wild type E. coli NCM3722, growth: C-lim chemostat, doubling time 6 h
[3] = wild type E. coli NCM3722, growth: C-lim chemostat, doubling time 12 h
[4] = E. coli NCM3722 delta-clpP, growth: N-lim chemostat, doubling time 6 h
[5] = wild type E. coli NCM3722, growth: C-lim chemostat, doubling time 3 h
[6] = wild type E. coli NCM3722, growth: N-lim chemostat, doubling time 6 h
[7] = E. coli NCM3722 delta-hslV, growth: N-lim chemostat, doubling time 6 h
[8] = E. coli NCM3722 delta-lon, growth: N-lim chemostat, doubling time 6 h
[9] = E. coli NCM3722 delta-smpB, growth: N-lim chemostat, doubling time 6 h
[10] = wild type E. coli NCM3722, growth: N-lim chemostat, doubling time 12 h
[11] = wild type E. coli NCM3722, growth: P-lim chemostat, doubling time 6 h
[12] = wild type E. coli NCM3722, growth: P-lim chemostat, doubling time 12 h

## MISAFDIFKIGIGPSSSHTVGPMNAGKSFIDRLESSGLLTATSHIVVDLYGSLSLTGKGHATDVAIIMGLAGNSPQDVVIDEIPAFIELVTRSGRLPVASGAHIVDFPVAKNIIFHPEMLPRHENGMRITAWKGQEELLSKTYYSVGGGFIVEEEHFGLSHDVETSVPYDFHSAGELLKMCDYNGLSISGLMMHNELALRSKAEIDAGFARIWQVMHDGIERGMNTEGVLPGPLNVPRRAVALRRQLVSSDNISNDPMNVIDWINMYALAVSEENAAGGRVVTAPTNGACGIIPAVLAYYDKFRRPVNERSIARYFLAAGAIGALYKMNASISGAEVGCQGEIGVACSMAAAGLTELLGGSPAQVCNAAEIAMEHNLGLTCDPVAGQVQIPCIERNAINAVKAVNAARMAMRRTSAPRVSLDKVIETMYETGKDMNDKYRETSRGGLAIKVVCG
[1]
  total protein half-life in vivo: 4.67 h
[2]
  total protein half-life in vivo: 2.13 h
[3]
  total protein half-life in vivo: 2.34 h

## MISTVALFWALCVVCIVNMARYFSSLRALLVVLRNCDPLLYQYVDGGGFFTSHGQPNKQVRLVWYIYAQRYRDHHDDEFIRRCERVRRQFILTSALCGLVVVSLIALMIWH [P0A8S5]
[1]
  total protein half-life in vivo: 0.94 h
[4]
  total protein half-life in vivo: 0.778 h
[5]
  total protein half-life in vivo: 0.797 h
[2]
  total protein half-life in vivo: > 8 h

## MITHNFNTLDLLTSPVWIVSPFEEQLIYANSAAKLLMQDLTFSQLRTGPYSVSSQKELPKYLSDLQNQHDIIEILTVQRKEEETALSCRLVLRKLTETEPVIIFEGIEAPATLGLKASRSANYQRKKQGFYARFFLTNSAPMLLIDPSRDGQIVDANLAALNFYGYNHETMCQKHTWEINMLGRRVMPIMHEISHLPGGHKPLNFVHKLADGSTRHVQTYAGPIEIYGDKLMLCIVHDITEQKRLEEQLEHAAHHDAMTGLLNRRQFYHITEPGQMQHLAIAQDYSLLLIDTDRFKHINDLYGHSKGDEVLCALARTLESCARKGDLVFRWGGEEFVLLLPRTPLDTALSLAETIRVSVAKVSISGLPRFTVSIGVAHHEGNESIDELFKRVDDALYRAKNDGRNRVLAA
[1]
  total protein half-life in vivo: 6.16 h
[4]
  total protein half-life in vivo: 1.51 h
[5]
  total protein half-life in vivo: 0.79 ± 0.18 h
[2]
  total protein half-life in vivo: 1.87 ± 0.062 h
[3]
  total protein half-life in vivo: 1.42 ± 0.21 h
[6]
  total protein half-life in vivo: 1.31 h

## MITNYEATVVTTDDIVHEVNLEGKRIGYVIKTENKETPFTVVDIDGPSGNVKTLDEGVKKMCLVHIGKNLPAEKKAEFLATLIAMKLKGEI
[2]
  total protein half-life in vivo: 5.13 h
[3]
  total protein half-life in vivo: 10.3 h

## MITRDFLMNADCKTAFGAIEESLLWSAEQRAASLAATLACRPDEGPVWIFGYGSLMWNPALEFTESCTGTLVGWHRAFCLRLTAGRGTAHQPGRMLALKEGGRTTGVAYRLPEETLEQELTLLWKREMITGCYLPTWCQLDLDDGRTVNAIVFIMDPRHPEYESDTRAQVIAPLIAAASGPLGTNAQYLFSLEQELIKLGMQDDGLNDLLVSVKKLLAENFPDGVLRPGFA
[1]
  total protein half-life in vivo: 5.67 ± 0.14 h

## MITTRTARQCGQADYGWLQARYTFSFGHYFDPKLLGYASLRVLNQEVLAPGAAFQPRTYPKVDILNVILDGEAEYRDSEGNHVQASAGEALLLSTQPGVSYSEHNLSKDKPLTRMQLWLDACPQRENPLIQKLALNMGKQQLIASPEGAMGSLQLRQQVWLHHIVLDKGESANFQLHGPRAYLQSIHGKFHALTHHEEKAALTCGDGAFIRDEANITLVADSPLRALLIDLPV
[1]
  total protein half-life in vivo: 5.48 ± 0.071 h
[4]
  total protein half-life in vivo: 4.42 ± 0.18 h
[7]
  total protein half-life in vivo: 5.31 ± 0.28 h
[8]
  total protein half-life in vivo: 4.33 ± 0.52 h
[9]
  total protein half-life in vivo: 4.37 ± 0.26 h
[2]
  total protein half-life in vivo: 4.71 h
[3]
  total protein half-life in vivo: 9.966 ± 0.01 h
[6]
  total protein half-life in vivo: 6.13 h
[10]
  total protein half-life in vivo: 8.48 ± 1.3 h
[11]
  total protein half-life in vivo: 4.66 ± 0.36 h
[12]
  total protein half-life in vivo: 9.05 ± 0.27 h

## MITVALIDDHLIVRSGFAQLLGLEPDLQVVAEFGSGREALAGLPGRGVQVCICDISMPDISGLELLSQLPKGMATIMLSVHDSPALVEQALNAGARGFLSKRCSPDELIAAVHTVATGGCYLTPDIAIKLASGRQDPLTKRERQVAEKLAQGMAVKEIAAELGLSPKTVHVHRANLMEKLGVSNDVELARRMFDGW [P0AGA6]
[1]
  total protein half-life in vivo: 5.29 ± 0.12 h
[4]
  total protein half-life in vivo: 4.19 ± 0.075 h
[8]
  total protein half-life in vivo: 4.25 ± 1.2 h
[9]
  total protein half-life in vivo: 3.84 ± 0.34 h
[5]
  total protein half-life in vivo: 2.7 ± 0.14 h
[2]
  total protein half-life in vivo: 4.26 ± 1.2 h
[3]
  total protein half-life in vivo: 8.86 ± 0.39 h
[6]
  total protein half-life in vivo: 4.01 ± 0.17 h
[10]
  total protein half-life in vivo: 6.351 ± 0.022 h
[11]
  total protein half-life in vivo: 4.35 ± 0.56 h
[12]
  total protein half-life in vivo: 7.3 ± 0.44 h

## MIVISRHVAIPDGELEITAIRAQGAGGQHVNKTSTAIHLRFDIRASSLPEYYKERLLAASHHLISSDGVIVIKAQEYRSQELNREAALARLVAMIKELTTEKKARRPTRPTRASKERRLASKAQKSSVKAMRGKVRSGRE
[4]
  total protein half-life in vivo: 3.47 h
[7]
  total protein half-life in vivo: 4.86 h
[8]
  total protein half-life in vivo: 5 ± 0.37 h
[9]
  total protein half-life in vivo: 4.58 h
[5]
  total protein half-life in vivo: 2.4 h
[2]
  total protein half-life in vivo: 4.63 h
[3]
  total protein half-life in vivo: 6.61 h
[6]
  total protein half-life in vivo: 4.19 h
[10]
  total protein half-life in vivo: 8.89 h
[11]
  total protein half-life in vivo: 4.91 h
